Source: PMC3136172, “Stabilization of a G-Quadruplex from Unfolding by Replication Protein A Using Potassium and the Porphyrin TMPyP4”

How the values were obtained:
[1] = target: RPA (full-length replication protein A) (human, UniProt P27694;P15927;P35244 1-616;1-270;1-121); test: CD titration (G4 unfolding); 100 mM NaCl, 2 mM Mg2+; complete unfolding at RPA:DNA ratio 2; 25 mM Tris pH 7.5, 2 mM MgCl2, 0.5% inositol, 1 mM DTT, 100 mM NaCl or 100 mM KCl, 25 C; 1.4 uM DNA, protein:DNA ratio 0-5; conditions: protein: recombinant; copies: 1;1;1; intramolecular G4; mixed parallel/antiparallel in K+, antiparallel in Na+
[2] = target: RPA-CDE-core (UniProt P27694;P15927;P35244 436-616;45-171;1-121); test: CD titration (G4 unfolding); 100 mM NaCl, 2 mM Mg2+; efficient unfolding, less than RPA; 25 mM Tris pH 7.5, 2 mM MgCl2, 0.5% inositol, 1 mM DTT, 100 mM NaCl or 100 mM KCl, 25 C; 1.4 uM DNA, protein:DNA ratio 0-5; conditions: protein: recombinant; tags: N-terminal His-tag, thrombin-cleaved; copies: 1;1;1; intramolecular G4; mixed parallel/antiparallel in K+, antiparallel in Na+
RPA-CDE-core, sequence (P27694 436-616, chain 1 of 3): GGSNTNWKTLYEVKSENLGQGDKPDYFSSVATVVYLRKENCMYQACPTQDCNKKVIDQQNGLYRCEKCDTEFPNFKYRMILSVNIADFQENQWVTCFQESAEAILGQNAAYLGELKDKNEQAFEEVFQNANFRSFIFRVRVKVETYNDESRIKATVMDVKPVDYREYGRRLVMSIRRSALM
RPA-CDE-core, sequence (P15927 45-171, chain 2 of 3): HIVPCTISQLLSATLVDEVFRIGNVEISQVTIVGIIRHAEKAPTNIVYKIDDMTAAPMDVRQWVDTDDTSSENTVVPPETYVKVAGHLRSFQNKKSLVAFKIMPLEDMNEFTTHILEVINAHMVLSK
RPA-CDE-core, sequence (P35244 whole entry, chain 3 of 3): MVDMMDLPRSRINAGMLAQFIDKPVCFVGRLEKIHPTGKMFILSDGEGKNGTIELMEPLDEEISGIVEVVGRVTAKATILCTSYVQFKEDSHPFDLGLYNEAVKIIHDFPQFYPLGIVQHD

RPA (full-length replication protein A), sequence (P27694 whole entry, chain 1 of 3): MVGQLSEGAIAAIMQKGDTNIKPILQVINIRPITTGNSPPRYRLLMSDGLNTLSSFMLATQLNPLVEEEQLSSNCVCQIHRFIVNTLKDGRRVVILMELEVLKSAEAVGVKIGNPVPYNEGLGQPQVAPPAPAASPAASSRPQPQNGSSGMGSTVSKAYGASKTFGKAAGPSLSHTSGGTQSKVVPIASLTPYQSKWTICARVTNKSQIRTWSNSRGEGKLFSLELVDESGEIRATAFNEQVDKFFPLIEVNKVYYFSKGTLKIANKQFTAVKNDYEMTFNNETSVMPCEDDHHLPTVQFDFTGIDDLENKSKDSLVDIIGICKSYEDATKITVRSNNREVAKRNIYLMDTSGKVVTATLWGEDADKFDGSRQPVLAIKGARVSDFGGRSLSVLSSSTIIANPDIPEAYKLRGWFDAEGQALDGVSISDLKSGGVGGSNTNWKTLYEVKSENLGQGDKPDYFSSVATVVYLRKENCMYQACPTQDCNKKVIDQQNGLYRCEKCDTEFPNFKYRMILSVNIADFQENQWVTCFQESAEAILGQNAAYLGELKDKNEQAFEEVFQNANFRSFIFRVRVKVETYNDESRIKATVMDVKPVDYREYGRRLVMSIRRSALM
RPA (full-length replication protein A), sequence (P15927 whole entry, chain 2 of 3): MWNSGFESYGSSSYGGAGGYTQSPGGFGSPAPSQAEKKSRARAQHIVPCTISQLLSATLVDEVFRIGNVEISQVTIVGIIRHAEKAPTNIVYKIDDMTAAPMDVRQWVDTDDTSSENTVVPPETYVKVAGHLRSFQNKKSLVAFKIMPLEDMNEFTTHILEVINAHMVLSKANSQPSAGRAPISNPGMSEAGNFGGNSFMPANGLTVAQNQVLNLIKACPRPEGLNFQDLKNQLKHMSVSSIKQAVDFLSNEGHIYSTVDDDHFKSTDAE
RPA (full-length replication protein A), sequence (P35244 whole entry, chain 3 of 3): as the sequence (P35244 whole entry, chain 3 of 3) above

B1: Gq23 (structured_DNA)
DNA: TAGGGGAAGGGTTGGAGTGGGTT
[1]
  binding result: binds
[2]
  binding result: binds
